Target: T1, Rev7, accessory subunit of S. cerevisiae DNA polymerase ζ (S. cerevisiae), P38927
T1 chain: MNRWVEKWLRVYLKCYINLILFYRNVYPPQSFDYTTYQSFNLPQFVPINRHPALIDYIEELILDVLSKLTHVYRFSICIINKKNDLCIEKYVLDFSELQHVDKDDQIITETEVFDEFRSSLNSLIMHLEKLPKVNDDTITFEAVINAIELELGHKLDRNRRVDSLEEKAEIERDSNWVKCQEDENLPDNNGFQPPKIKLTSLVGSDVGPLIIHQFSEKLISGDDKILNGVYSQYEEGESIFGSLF
Experiment: cryo-EM structure
Conditions: remark: other sources report otherwise

B1: Rev7, accessory subunit of S. cerevisiae DNA polymerase ζ, P38927 1-245 (natural protein)
chain: T1 chain
With B1 as the binder, how does the stoichiometry N read?
Its stoichiometry N is 2.
